According to US20260242735A1 (UNIVERSIT T BASEL, published 2026):

Columns and labels:
Assay in all cases: flow cytometry, alanine scan
human CD33 S351A = human CD33 S351A (human, UniProt P20138 18-364)
human CD33 D335A = human CD33 D335A (human, UniProt P20138 18-364)
human CD33 V332A = human CD33 V332A (human, UniProt P20138 18-364)
human CD33 E357A = human CD33 E357A (human, UniProt P20138 18-364)
human CD33 H346A = human CD33 H346A (human, UniProt P20138 18-364)
human CD33 G347A = human CD33 G347A (human, UniProt P20138 18-364)
human CD33 T356A = human CD33 T356A (human, UniProt P20138 18-364)
human CD33 M334A = human CD33 M334A (human, UniProt P20138 18-364)
Chain of human CD33 M334A (P20138 18-364 M334A limits assumed): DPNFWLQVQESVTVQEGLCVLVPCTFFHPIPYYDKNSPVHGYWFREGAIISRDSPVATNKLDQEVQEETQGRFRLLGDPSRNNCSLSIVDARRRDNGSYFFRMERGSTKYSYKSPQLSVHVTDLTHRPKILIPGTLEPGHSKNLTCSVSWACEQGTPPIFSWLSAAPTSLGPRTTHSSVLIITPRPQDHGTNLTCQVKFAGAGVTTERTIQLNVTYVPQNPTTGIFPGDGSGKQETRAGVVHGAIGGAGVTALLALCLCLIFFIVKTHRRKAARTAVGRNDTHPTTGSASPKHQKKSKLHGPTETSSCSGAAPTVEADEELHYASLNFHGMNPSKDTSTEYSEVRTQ

human CD33 A329S = human CD33 A329S (human, UniProt P20138 18-364)
Chain of human CD33 A329S (P20138 18-364 A329S limits assumed): as the sequence (P20138 18-364 M334A limits assumed) above, with A312S, A317M counted along it

human CD33 D353A = human CD33 D353A (human, UniProt P20138 18-364)
Chain of human CD33 D353A (P20138 18-364 D353A limits assumed): as the sequence (P20138 18-364 M334A limits assumed) above, with A317M, D336A counted along it

human CD33 S359A = human CD33 S359A (human, UniProt P20138 18-364)
human CD33 P330A = human CD33 P330A (human, UniProt P20138 18-364)
Chain of human CD33 P330A (P20138 18-364 P330A limits assumed): as the sequence (P20138 18-364 M334A limits assumed) above, with P313A, A317M counted along it

human CD33 E321A = human CD33 E321A (human, UniProt P20138 18-364)
human CD33 S342A = human CD33 S342A (human, UniProt P20138 18-364)
Chain of human CD33 S342A (P20138 18-364 S342A limits assumed): as the sequence (P20138 18-364 M334A limits assumed) above, with A317M, S325A counted along it

human CD33 T354A = human CD33 T354A (human, UniProt P20138 18-364)
human CD33 P350A = human CD33 P350A (human, UniProt P20138 18-364)
human CD33 L338A = human CD33 L338A (human, UniProt P20138 18-364)
Chain of human CD33 L338A (P20138 18-364 L338A limits assumed): as the sequence (P20138 18-364 M334A limits assumed) above, with A317M, L321A counted along it

human CD33 C325A = human CD33 C325A (human, UniProt P20138 18-364)
human CD33 T320A = human CD33 T320A (human, UniProt P20138 18-364)
human CD33 T331A = human CD33 T331A (human, UniProt P20138 18-364)
Chain of human CD33 T331A (P20138 18-364 T331A limits assumed): as the sequence (P20138 18-364 M334A limits assumed) above, with T314A, A317M counted along it

human CD33 S323A = human CD33 S323A (human, UniProt P20138 18-364)
human CD33 E360A = human CD33 E360A (human, UniProt P20138 18-364)
human CD33 E337A = human CD33 E337A (human, UniProt P20138 18-364)
Chain of human CD33 E337A (P20138 18-364 E337A limits assumed): as the sequence (P20138 18-364 M334A limits assumed) above, with A317M, E320A counted along it

human CD33 E336A = human CD33 E336A (human, UniProt P20138 18-364)
human CD33 Q364A = human CD33 Q364A (human, UniProt P20138 18-363)
Chain of human CD33 Q364A (P20138 18-364 Q364A limits assumed): as the sequence (P20138 18-364 M334A limits assumed) above, with A317M, Q347A counted along it

human CD33 K352A = human CD33 K352A (human, UniProt P20138 18-364)
human CD33 Y358A = human CD33 Y358A (human, UniProt P20138 18-364)
human CD33 S355A = human CD33 S355A (human, UniProt P20138 18-364)
human CD33 V361A = human CD33 V361A (human, UniProt P20138 18-364)
Chain of human CD33 V361A (P20138 18-364 V361A limits assumed): as the sequence (P20138 18-364 M334A limits assumed) above, with A317M, V344A counted along it

human CD33 Y340A = human CD33 Y340A (human, UniProt P20138 18-364)
Chain of human CD33 Y340A (P20138 18-364 Y340A limits assumed): as the sequence (P20138 18-364 M334A limits assumed) above, with A317M, Y323A counted along it

human CD33 H339A = human CD33 H339A (human, UniProt P20138 18-364)
human CD33 S326A = human CD33 S326A (human, UniProt P20138 18-364)
human CD33 T322A = human CD33 T322A (human, UniProt P20138 18-364)
Chain of human CD33 T322A (P20138 18-364 T322A limits assumed): as the sequence (P20138 18-364 M334A limits assumed) above, with T305A, A317M counted along it

human CD33 P319A = human CD33 P319A (human, UniProt P20138 18-364)
human CD33 T363A = human CD33 T363A (human, UniProt P20138 18-364)
human CD33 R362A = human CD33 R362A (human, UniProt P20138 18-364)
human CD33 F345A = human CD33 F345A (human, UniProt P20138 18-364)
human CD33 N344A = human CD33 N344A (human, UniProt P20138 18-364)
human CD33 A341S = human CD33 A341S (human, UniProt P20138 18-364)
human CD33 G327A = human CD33 G327A (human, UniProt P20138 18-364)
human CD33 S324A = human CD33 S324A (human, UniProt P20138 18-364)
human CD33 N349A = human CD33 N349A (human, UniProt P20138 18-364)
human CD33 E333A = human CD33 E333A (human, UniProt P20138 18-364)
human CD33 G318A = human CD33 G318A (human, UniProt P20138 18-364)
human CD33 L343A = human CD33 L343A (human, UniProt P20138 18-364)
human CD33 M348A = human CD33 M348A (human, UniProt P20138 18-364)
Chain of human CD33 M348A (P20138 18-364 M348A limits assumed): as the sequence (P20138 18-364 M334A limits assumed) above, with A317M, M331A counted along it

human CD33 A328S = human CD33 A328S (human, UniProt P20138 18-364)
Chain of human CD33 A328S (P20138 18-364 A328S limits assumed): as the sequence (P20138 18-364 M334A limits assumed) above, with A311S, A317M counted along it

B1: Refmab #4 (antibody, V domains shown)
VH: QVQLVQSGAEVKKPGESVKVSCKASGYTFTNYGMNWVKQAPGQGLEWMGWINTYTGEPTYADKFQGRVTMTTDTSTSTAYMEIRNLGGDDTAVYYCARWSWSDGYYVYFDYWGQGTSVTVSS
VL: DIVMTQSPDSLTVSLGERTTINCKSSQSVLDSSTNKNSLAWYQQKPGQPPKLLLSWASTRESGIPDRFSGSGSGTDFTLTIDSPQPEDSATYYCQQSAHFPITFGQGTRLEIK
notes: The alanine scan used IgG or Fab
Mean % WT Binding (human CD33 S351A): 114 % of WT | Mean % WT Binding (human CD33 D335A): 105 % of WT | Mean % WT Binding (human CD33 V332A): 93.4 % of WT | Mean % WT Binding (human CD33 E357A): 110 % of WT | Mean % WT Binding (human CD33 H346A): 111 % of WT | Mean % WT Binding (human CD33 G347A): 72.1 % of WT | Mean % WT Binding (human CD33 T356A): 107 % of WT | Mean % WT Binding (human CD33 M334A): 111 % of WT | Mean % WT Binding (human CD33 A329S): 87.3 % of WT | Mean % WT Binding (human CD33 D353A): 74.9 % of WT | Mean % WT Binding (human CD33 S359A): 82.7 % of WT | Mean % WT Binding (human CD33 P330A): 97.8 % of WT | Mean % WT Binding (human CD33 E321A): 120 % of WT | Mean % WT Binding (human CD33 S342A): 105 % of WT | Mean % WT Binding (human CD33 T354A): 106 % of WT | Mean % WT Binding (human CD33 P350A): 93.1 % of WT | Mean % WT Binding (human CD33 L338A): 109 % of WT | Mean % WT Binding (human CD33 C325A): 88.6 % of WT | Mean % WT Binding (human CD33 T320A): 109 % of WT | Mean % WT Binding (human CD33 T331A): 97.9 % of WT | Mean % WT Binding (human CD33 S323A): 103 % of WT | Mean % WT Binding (human CD33 E360A): 104 % of WT | Mean % WT Binding (human CD33 E337A): 106 % of WT | Mean % WT Binding (human CD33 E336A): 109 % of WT | Mean % WT Binding (human CD33 Q364A): 81.5 % of WT | Mean % WT Binding (human CD33 K352A): 103 % of WT | Mean % WT Binding (human CD33 Y358A): 109 % of WT | Mean % WT Binding (human CD33 S355A): 91.5 % of WT | Mean % WT Binding (human CD33 V361A): 92.4 % of WT | Mean % WT Binding (human CD33 Y340A): 112 % of WT | Mean % WT Binding (human CD33 H339A): 82 % of WT | Mean % WT Binding (human CD33 S326A): 65.8 % of WT | Mean % WT Binding (human CD33 T322A): 98.2 % of WT | Mean % WT Binding (human CD33 P319A): 97 % of WT | Mean % WT Binding (human CD33 T363A): 124 % of WT | Mean % WT Binding (human CD33 R362A): 104 % of WT | Mean % WT Binding (human CD33 F345A): 109 % of WT | Mean % WT Binding (human CD33 N344A): 71.2 % of WT | Mean % WT Binding (human CD33 A341S): 104 % of WT | Mean % WT Binding (human CD33 G327A): 99.1 % of WT | Mean % WT Binding (human CD33 S324A): 96.4 % of WT | Mean % WT Binding (human CD33 N349A): 95.5 % of WT | Mean % WT Binding (human CD33 E333A): 104 % of WT | Mean % WT Binding (human CD33 G318A): 92.2 % of WT | Mean % WT Binding (human CD33 L343A): 116 % of WT | Mean % WT Binding (human CD33 M348A): 85 % of WT | Mean % WT Binding (human CD33 A328S): 75.6 % of WT
